Experimental findings from the supplement of paper PMC10126150 are described below.

± gives the standard deviation of the averaged measurements.

The subject of the data set is ATP. Description: switch fluorescence ratio, 500 uM ATP over buffer (Cy3 cluster intensity, sum of 5 cycles each) (fold (ratio)); higher = stronger signal-on switching upon ATP binding; sequences stand for … in TCGTCGGCAGCGTCAGATGTGTATAAGAGACAGTTTTTTTTTTTTTTTTTTTTTTTTT…TC. To be noted: aptamer strand: ATP DNA aptamer (quencher-CACCTGGGGGAGTATTGCGGAGGAAGG + anchor), 100 nM annealed; ATP concentration: 500 uM. In a few lines: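 Five buffer/ATP imaging cycles were run on Cy3-labelled switching-strand clusters on a modified Illumina MiSeq flow-cell, with NaOH stripping and re-annealing between cycles. In each cycle, clusters annealed to 100 nM quencher-labelled ATP aptamer were imaged in selection buffer, then after 15 min with 500 uM ATP at 22 °C. Per cluster, the fluorescence ratio is summed target-cycle over summed buffer-cycle Cy3 intensity, averaged per switch-domain sequence. Only clusters within 100-1000 RFU were kept.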
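Also: ATP exposure 15 min at 22 °C before imaging.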

In the case of CATGGATGCC, the switch fluorescence ratio turned out to be 0.998 ± 0.022.
Consider AAATGTCTAG, for which the switch fluorescence ratio came out at 1.01 ± 0.037.
Then CGGAAAAATC, with 1.53 ± 0.76.
Consider TGATTTGGGG, for which the switch fluorescence ratio is 0.9675 ± 0.0076.
In the case of TTAATCGTTA it was 1.01 ± 0.011.
Take AGGCCTCAGG: the switch fluorescence ratio was 0.99 ± 0.022.
In the case of TTGCTAGGGC it was 1.01 ± 0.033; in that of GAATCATAGT, 1.003 ± 0.0083; in that of GGGGGCGGGC, 1.01 ± 0.081.
Turning to TCGGGATGGC, the switch fluorescence ratio is 1.03 ± 0.024.
Regarding CGAAAAATAG, the switch fluorescence ratio was determined as 0.985 ± 0.043.
Then ATCGTGTG, with 1.01 ± 0.038.
In the case of ATAATTTTTT it was 1.03 ± 0.063; in that of TTGAACGGGA, 1.01 ± 0.044; in that of CAAGAATGCG, 1 ± 0.034.
For the sequence TTTGAAGGG, the switch fluorescence ratio was 0.965 ± 0.012.
In the case of AGACGCAGGG it was 1.034 ± 0.0053.
In the case of GCAAAACGGG it was 1.02 ± 0.069.
Then GGGGAGATTC, with 0.994 ± 0.013.
For the sequence ATGTTTAAG, the switch fluorescence ratio came to 1.012 ± 0.0094.
Then TTTATAATCA, with 0.967 ± 0.011; and CGTTAGCTTT, with 1.02 ± 0.026; and TGGCTTTTAC, with 1.09 ± 0.056.
In the case of TTAAGTACGC it was 1.29 ± 0.014.
Take GCTATGGGGA: the switch fluorescence ratio stood at 1.02 ± 0.02.
As to TGCAGTGGTT, the switch fluorescence ratio was 1.01 ± 0.03.
As for AATGTTAATG, the switch fluorescence ratio was found to be 0.94 ± 0.019.
Then TGAGCGAAGG, with 0.9807 ± 0.0057; and TGACGCAAGG, with 2.8 ± 0.093; and TCTGAGCCGA, with 1.39 ± 0.52.
Then GCTTGGATGT, with 1.0207 ± 0.00092; and TGCTGGGGGT, with 1.03 ± 0.068.
AATTTGGGTC: the switch fluorescence ratio amounted to 0.981 ± 0.016.
In the case of GAGGAAGTCG, the switch fluorescence ratio amounted to 0.9961 ± 0.0055.
As to AGACTAGCCA, the switch fluorescence ratio worked out at 0.981 ± 0.081.
As to GCTTCGGAGT, the switch fluorescence ratio was determined as 1.059 ± 0.01.
In the case of GCTTTTCGGG it was 1.02 ± 0.02.
In the case of ACTGGTATTG, the switch fluorescence ratio amounted to 1.02 ± 0.025.
In the case of TTTTCTAGGG it was 1.01 ± 0.017; in that of TGCGTAGTGC, 1.09 ± 0.036; in that of CGTCCGAAGT, 2.03 ± 0.18.
On to CTATATACCA, for which the switch fluorescence ratio is 1.06 ± 0.043.
As for AAGTTTGTTG, the switch fluorescence ratio is 0.986 ± 0.023.
For TTGTTTAACT, the switch fluorescence ratio is 1.02 ± 0.026.
In the case of ATTTATATTG it was 0.989 ± 0.05.
As for TTATCTAATC, the switch fluorescence ratio is 0.972 ± 0.008.
Take TTTGGGGCGG: the switch fluorescence ratio was determined as 0.989 ± 0.038.
In the case of ATCTGAATTG, the switch fluorescence ratio came out at 0.988 ± 0.013.
For GCCATTAAGA, the switch fluorescence ratio is 1.01 ± 0.011.
GGTTTGCAGC: the switch fluorescence ratio was found to be 0.975 ± 0.021.
As to ATAGTGAGTT, the switch fluorescence ratio amounted to 1 ± 0.016.
Consider TTAAATTATT, for which the switch fluorescence ratio came out at 0.984 ± 0.024.
In the case of ACATCGTCAT it was 1.01 ± 0.02; in that of ATCGGCGTAT, 1.01 ± 0.012; in that of TGAATAGAGG, 1.012 ± 0.0024.
Then AAGAGTCTTT, with 1.01 ± 0.017; and GGGGGCCATG, with 1.03 ± 0.068.
In the case of GGTTGGAAAG it was 0.9919 ± 0.0013.
As to ATGGACAGGT, the switch fluorescence ratio is 1.04 ± 0.031.
Take ACGCTATCGC: the switch fluorescence ratio worked out at 1.526 ± 0.0041.
Take AAATTGTAAA: the switch fluorescence ratio came to 0.969 ± 0.051.
Then GAGATATTGG, with 0.99 ± 0.013; and GGCCCGGTGC, with 1.08 ± 0.12; and CGATGGTGTT, with 1.01 ± 0.035.
In the case of TGGGTGCCGT it was 1.04 ± 0.034; in that of TGTGTAGGGG, 1.04 ± 0.079; in that of ACGAGTTTGG, 0.963 ± 0.036.
In the case of TTATTGTTAC it was 1.03 ± 0.036.
Consider CCGGGGTACA, for which the switch fluorescence ratio was 1.17 ± 0.17.
For the sequence TTTTCCCGGA, the switch fluorescence ratio came to 1.013 ± 0.0028.
In the case of GCGCAGCGGC it was 1.09 ± 0.023; in that of TTAATTTTTG, 0.996 ± 0.029; in that of AAGCACTAGG, 1.1916 ± 0.0011.
In the case of ACTTTGGGCA it was 0.99606 ± 0.00098; in that of GAAAGGGTGG, 0.9746 ± 0.0081.
In the case of TAATCATTGG it was 1.01 ± 0.065; in that of TAAGTCGGAA, 0.996 ± 0.022.
As for ACATGGGTT, the switch fluorescence ratio was determined as 1.04 ± 0.05.
With TAGTCTACGA, the switch fluorescence ratio came out at 1.03 ± 0.026.
Consider GACGCATTTT, for which the switch fluorescence ratio was found to be 2.18 ± 0.17.
In the case of TAGGACGGTG it was 0.992 ± 0.034.
Turning to TCGTGCTGCG, the switch fluorescence ratio is 1.0004 ± 0.00051.
In the case of TTCGAGTTGG it was 0.9772 ± 0.0027; in that of GTTTTGGTG, 1.08 ± 0.12.
In the case of GACGTTGTGG, the switch fluorescence ratio turned out to be 1.03 ± 0.014.
On to CGCGTGAAGA, for which the switch fluorescence ratio was 1.12 ± 0.11.
With ATTTTTCTCG, the switch fluorescence ratio is 0.96 ± 0.041.
Regarding TCAGTGCTTA, the switch fluorescence ratio was 1.01 ± 0.038.
Consider CTTTTAGGTG, for which the switch fluorescence ratio was determined as 1.11 ± 0.12.
As for CGGGTCGTGC, the switch fluorescence ratio was 1.03 ± 0.013.
As to CATCTAGGGC, the switch fluorescence ratio turned out to be 1.04 ± 0.028.
Take TCGGGTTGTA: the switch fluorescence ratio is 1 ± 0.025.
CGGGAGGTGT: the switch fluorescence ratio came to 1.029 ± 0.0037.
For the sequence TTTAATAGTT, the switch fluorescence ratio was 1.03 ± 0.022.
In the case of TATCGGTTGG it was 1.044 ± 0.0086.
Take CTGGTCATTT: the switch fluorescence ratio came to 0.997 ± 0.069.
Regarding GGGATTTTTT, the switch fluorescence ratio was determined as 1.06 ± 0.16.
For TGTTGGCACA, the switch fluorescence ratio came out at 1.015 ± 0.0012.
As to CAGGTTGTGC, the switch fluorescence ratio was 0.98 ± 0.055.
In the case of TATCTTATTT it was 0.9874 ± 0.0093; in that of CTGTATAACG, 0.998 ± 0.031.
Turning to TTGTGATACT, the switch fluorescence ratio amounted to 1.07 ± 0.044.
In the case of GGGCTATATT, the switch fluorescence ratio amounted to 0.9904 ± 0.0084.
In the case of TCCCCATGGC, the switch fluorescence ratio worked out at 1.35 ± 0.1.
Then TTATAATCGT, with 0.988 ± 0.014; and AGTGTGACAG, with 0.987 ± 0.018.
As to CGATGTAGGC, the switch fluorescence ratio was 1.05 ± 0.088.
For the sequence AAAGGGCGCA, the switch fluorescence ratio is 1.02 ± 0.017.
Regarding AGAATGGGGA, the switch fluorescence ratio was 1.02 ± 0.0092.
In the case of TTTTTGCGGT it was 0.978 ± 0.025.
As for GATCATCAGG, the switch fluorescence ratio was determined as 1 ± 0.012.
Turning to AGGGGAATGG, the switch fluorescence ratio stood at 0.997 ± 0.015.
On to GGTTTTAAAT, for which the switch fluorescence ratio stood at 0.98195 ± 0.00028.
As to TTAGAGACTG, the switch fluorescence ratio turned out to be 1.08 ± 0.11.
On to TACTGGTTGG, for which the switch fluorescence ratio was 1 ± 0.021.
In the case of GATCGCCCCG, the switch fluorescence ratio was 1 ± 0.02.
In the case of CAGTGGCCTA it was 0.99094 ± 0.00045.
In the case of CATTTTGTAG it was 1.039 ± 0.0043; in that of TTTCTTTTCT, 1.02 ± 0.032; in that of TAAGGGCGCG, 1.03 ± 0.035.
